Experimental data: patent publication US8846623B2, “Cancer-targeting peptides and uses thereof in cancer treatment and diagnosis” (Academia Sinica, priority 2010, dated 2014)
Square brackets hold non-standard residues; d marks the D form. Ends that are not written are not given here. Peptide text beside a SMILES is read from it.

Columns and labels:
[1] = biological target: full-length recombinant GRP78 (Homo sapiens, UniProt P11021); assay: Biacore binding assay of peptides; settings: for binding responses in Biacore / Binding to GRP78 compared to the L-peptide: in words; for Binding index: peptide at 50 μM, difference of RUs divided by molecular weight, normalized to the L-peptide; for Binding to GRP78 compared to the L-peptide: Biacore
Sequence of full-length recombinant GRP78 (P11021 19-654): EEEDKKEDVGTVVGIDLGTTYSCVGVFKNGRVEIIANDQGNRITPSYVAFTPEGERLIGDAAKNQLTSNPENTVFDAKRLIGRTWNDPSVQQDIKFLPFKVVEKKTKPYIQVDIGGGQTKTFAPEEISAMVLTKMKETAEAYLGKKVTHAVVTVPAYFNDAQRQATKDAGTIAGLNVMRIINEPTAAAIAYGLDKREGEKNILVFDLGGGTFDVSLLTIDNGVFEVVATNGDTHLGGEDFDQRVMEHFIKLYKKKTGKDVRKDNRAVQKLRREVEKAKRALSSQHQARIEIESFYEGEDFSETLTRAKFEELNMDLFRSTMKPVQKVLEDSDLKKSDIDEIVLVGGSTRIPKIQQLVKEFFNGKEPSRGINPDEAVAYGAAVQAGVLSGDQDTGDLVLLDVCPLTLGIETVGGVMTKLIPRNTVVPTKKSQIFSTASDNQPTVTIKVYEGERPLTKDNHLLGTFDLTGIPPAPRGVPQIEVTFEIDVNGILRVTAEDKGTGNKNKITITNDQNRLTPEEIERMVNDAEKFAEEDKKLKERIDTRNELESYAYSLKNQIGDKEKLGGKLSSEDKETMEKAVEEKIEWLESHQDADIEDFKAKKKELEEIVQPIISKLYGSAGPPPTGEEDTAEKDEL
Protocol: 26 candidate peptides designed by the method described in Example 1 (listed in Table 6 below) above and peptide CdL, a negative control, were synthesized by conventional chemical synthesis and subjected to the surface-plasmon-resonance based method described below to examine the binding activities of the peptides to human GRP78.
The chip NTA and HBS-P buffer were obtained from GE Healthcare. Sensor chip NTA was prepared by combining Ni-ion chelation and covalent immobilization of N-His tagged GRP78 via amine-coupling with nitrilotriacetic acid on chip NTA (FIG. 6). To immobilize GRP78 protein on sensor chip for peptide-binding assay using Biacore, the methods based on Ni-ion chelation and amine coupling reaction were combined. Sensor chip NTA was prepared by chelation followed by covalent immobilization of N-His-tagged GRP78 via amine-coupling at the nitrilotriacetic acid group on chip NTA. The sensor chip NTA, HBS-P buffer and amine coupling kits were all obtained from GE Healthcare. First, the activation of chip surface using EDC and NHS reagents for amine coupling were according to the standard procedure from manufacturer's instruction. Additionally, one-minute pulse of NiCl2 solution (500 μM) was used to attract His-tagged GRP78 to the surface of sensor chip and formed covalent bond subsequently in the condition of HBS-P buffer (pH 7.4). The resulting differences of RU were about 5,000-6,000 RU. After de-activation by ethanolamine and washed with EDTA (3 mM), the prepared sensor chip was then applied to Biacore X for binding assay. The HBS-P buffer containing 1 mM Gly was used as running buffer for binding assay. Solution of 20 mM sodium hydroxide dissolved in running buffer was used to regenerate the chip surface by one-minute pulse.
The sensor chip thus prepared was applied to Biacore X for determining the binding between the peptides and GRP78. The HBS-P buffer containing 1 mM Gly was used as a running buffer. A solution of 20 mM sodium hydroxide dissolved in the running buffer was used to regenerate chip surface by 1-minute pulses.
The binding of various peptides to GRP78 is also shown as a binding index in Table 6. The binding index represents the difference of resonance units (RUs) divided by the molecular weight of each peptide and was normalized by comparison to the L-peptide.

TW01 cells = assay: Flow cytometry binding of FITC-labeled peptide, TW01; format: cell-based; settings: Nasopharyngeal
Protocol: (§1) Cells were grown to 80% confluence and harvested with 5 mmol/L EDTA in PBS. Breast cancer specimens were obtained from patients who underwent initial surgery at Tri-Service General Hospital (Taipei, Taiwan). The clinical breast cancer specimens were sliced to fragments of 1 mm2 in size and subjected to enzymatic digestion by collagenase (1,000 U/mL), hyaluronidase (300 U/mL), and DNase I (100 μg/mL) at 37° C. for 2 hours. Primary breast tumor cells were collected after filtration through a 100 μm cell strainer (BD Biosciences) and re-suspended. For transplantation, tumor cells mixed with normal human breast fibroblasts and Matrigel were subcutaneously injected into mammary fat pads of female NOD/SCID mice received a sub-lethal dose of gamma irradiation in advance. After transplantation, cells of xenografted tumors were isolated and inoculated in NOD/SCID mice for serial passages. The cancer cell lines, xenograft cells, and primary breast tumor cells were re-suspended in a FACS buffer (PBS with 2% fetal bovine serum) and incubated at room temperature for 30 min with FITC-conjugated various peptides. To determine breast cancer stem cell (BCSCs) and non-breast cancer stem cell (non-BCSC) populations from xenografts, the cells were stained with a mixture of anti-H2Kd-biotin followed by streptavidin-PER-CP, anti-CD24-PE, anti-CD44-APC and FITC-conjugated various peptides. The primary breast tumor cells were stained with anti-CD45-PerCP-Cy5.5 antibodies, instead of H2Kd staining. The stained cells were then subjected to FACS analysis.

MDA-MB-231 cells = assay: Flow cytometry binding of FITC-labeled peptide, MDA-MB-231; format: cell-based; settings: Breast
Protocol: as §1

[2] = tested on: human primary breast cancer BC0145 and BC0244 engrafted in NOD/SCID mice; assay: Flow cytometry binding of FITC-labeled peptides to xenograft cells (BCSC-enriched and non-BCSC); format: cell-based; settings: for Binding capacities in vitro compared with L-peptide: both BCSCs and non-BCSCs
Protocol: To evaluate the in vitro binding abilities of cancer-targeting peptides described herein, the FITC-labeled L-peptide, P-6, P-12, P-13, and P-16 were tested for their binding activities to cancer cells, primary breast cancer engrafted in NOD/SCID mice, and clinical breast cancer specimens by a flow cytometric analysis as described below.
as §1
The binding capacities of the L-peptide and the P-6, P-12, P-13, and P-16 peptides to two xenograft samples from NOD-SCID mice transplanted with human primary breast cancer cell lines BC0145 and BC0244 were evaluated with special focus on their binding to the BCSC subpopulation enriched from the breast cancer cells. Breast cancer cells harvested from engrafted tumors were stained with H2Kd to gate out mouse cells, and stained with anti-CD24 and anti-CD44 antibodies to distinguish BCSC-enriched cells (CD24^−CD44^+) from non-BCSC cells. These cells were co-stained with one of the above-noted peptides, which was FITC-labeled and subjected to flow cytometric analysis. […] The binding abilities of these peptides to clinical breast specimens were similar to those to xenograft samples. […] FIG. 7, panel d.

GRP78 = GRP78 (Homo sapiens, UniProt P11021); assay: Dissociation constant of L-peptide binding to GRP78; settings: dose-dependent binding to GRP78
Sequence of GRP78 (P11021 19-654): as above

Compound	Binding index [1]	also measured
RLLDTNRPKLVY [P-2]	<0.2	
RLLDTNRPMLKY [P-8]	<0.2	
RLLDTNRPLLLY [P-14]	0.21	
RLLDTNRPL(d-L)PY (RLLDTNRPL[dL]PY) [CdL, negative control peptide, reference compound]	<0.2	
RLLDTNRPHLKY [P-15]	<0.2	
RLLDTNRPLLGY [P-11]	0.77	
RLLDTNRPPLCY [P-9]	<0.2	
RLLDTNRPFLPY [P-6]	1.1~1.52	Binding to GRP78 compared to the L-peptide [1]: bound to GRP78 better than the L-peptide; binding responses in Biacore [1]: significant binding responses; Binding ability (TW01 cells): bound; Binding ability (MDA-MB-231 cells): bound; binding capacity to BCSC-enriched cells ([2]; FITC-labeled peptide, BCSC-enriched cells isolated from the BC0145 xenograft): equivalent to P-12; Binding capacities in vitro compared with L-peptide ([2]; FITC-labeled peptides): greater binding capacities in vitro than L-peptide
RLLDTNRPFLKY [P-10]	<0.2	
RLLDTNRPHLWY [P-12]	1.2~3.5	Binding to GRP78 compared to the L-peptide [1]: bound to GRP78 better than the L-peptide; binding responses in Biacore [1]: significant binding responses; Binding ability (TW01 cells): bound; Binding ability (MDA-MB-231 cells): bound; Binding capacities in vitro compared with L-peptide ([2]; FITC-labeled peptides): greater binding capacities in vitro than L-peptide
RLLDTNRPKLFY [P-4]	<0.2	
RLLDTNRPYLKY [P-1]	<0.2	
CC(C)C[C@H](NC(=O)[C@H](CC(C)C)NC(=O)[C@@H](N)CCCNC(=N)N)C(=O)N[C@@H](CC(=O)O)C(=O)N[C@H](C(=O)N[C@@H](CC(N)=O)C(=O)N[C@@H](CCCNC(=N)N)C(=O)N1CCC[C@H]1C(=O)N[C@@H](CC(C)C)C(=O)N[C@@H](CC(C)C)C(=O)N1CCC[C@H]1C(=O)N[C@@H](Cc1ccc(O)cc1)C(=O)O)[C@@H](C)O [L-peptide] (H-RLLDTNRPLLPY-OH)		Kd (GRP78): 1 to 10 µM
RLLDTNRPKLRY [P-16]	<0.2	
RLLDTNRPQLVY [P-3]	<0.2	
RLLDTNRPFLFY [P-13]	1.4~3.5	Binding to GRP78 compared to the L-peptide [1]: bound to GRP78 better than the L-peptide; binding responses in Biacore [1]: significant binding responses; Binding ability (TW01 cells): bound; Binding ability (MDA-MB-231 cells): bound; Staining strength (order of binding) ([2]; FITC-labeled peptides, BCSC-enriched and non-BCSC cells of BC0145 and BC0244 xenografts): stained most strongly; Binding capacities in vitro compared with L-peptide ([2]; FITC-labeled peptides): greater binding capacities in vitro than L-peptide
RLLDTNRPRLEY [P-17]	<0.2	
RLLDTNRPMLMY [P-5]	<0.2	
RLLDTNRPSLFY [P-7]	<0.2	

Second part, led by results:

Binding index [1]	Compound	also measured
3	RLLDTNRPYLWY [PB-2]	binding responses in Biacore [1]: significant binding responses
0.35	RLLDTNRPWLPY [PA-1]	Binding to GRP78 compared to the L-peptide [1]: significantly decreased the binding
0.3	RLLDTNRPQLPY [PA-5]	
0.31	RLLDTNRPNLPY [PA-4]	
1.6	RLLDTNRPFLWY [PB-1]	binding responses in Biacore [1]: significant binding responses
<0.2	RLLDTNRPELPY [PA-2]	
1.15	RLLDTNRPLLPY(CONH2) (RLLDTNRPLLPY-NH2) [PB-3, L-peptide modified with the amidation (CONH2)]	Binding to GRP78 compared to the L-peptide [1]: did not significantly affect the binding affinity; binding responses in Biacore [1]: significant binding responses
0.47	RLLDTNRPHLPY [PA-6]	
<0.2	RLLDTNRPDLPY [PA-3]	
